Test results taken from patent publication US5710252.

Target: FLAG epitope Trypsin site N-terminally tagged 9 repeat GG biopolymer (SEQ ID NO:20)

Trypsin (type XI DPCC treated) (enzyme) was tested. Which completeness of the Trypsin cleavage reaction, by relative mobility on SDS gels did it give?
Its completeness of the Trypsin cleavage reaction, by relative mobility on SDS gels is 100%.
